We go through eight molecules from patent publication US20140087995A1 (published 2014).

In test [1] the target is T1, human amylin 3(a) receptor (human calcitonin receptor plus RAMP-3) (human, UniProt P30988 25-474; O60896 24-148, limits assumed).
T1 construct: whole, on cells; Whole cells in the luciferase assay (Assay II a); also called hAmylin-R; human amylin receptor
T1 sequence (looked up) 1: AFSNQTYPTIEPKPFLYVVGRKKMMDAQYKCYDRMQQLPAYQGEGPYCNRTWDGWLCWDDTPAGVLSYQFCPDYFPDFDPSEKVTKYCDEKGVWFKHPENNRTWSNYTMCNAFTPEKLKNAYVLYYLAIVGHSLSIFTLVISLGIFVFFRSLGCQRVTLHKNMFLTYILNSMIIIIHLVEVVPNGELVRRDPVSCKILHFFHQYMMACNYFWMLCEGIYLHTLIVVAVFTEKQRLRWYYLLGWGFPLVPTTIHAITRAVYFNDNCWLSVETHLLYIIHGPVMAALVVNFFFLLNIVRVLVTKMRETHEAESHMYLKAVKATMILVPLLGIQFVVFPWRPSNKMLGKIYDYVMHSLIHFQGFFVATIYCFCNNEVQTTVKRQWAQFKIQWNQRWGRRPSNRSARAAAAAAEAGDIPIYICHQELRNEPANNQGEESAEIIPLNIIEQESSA
T1 sequence (looked up) 2: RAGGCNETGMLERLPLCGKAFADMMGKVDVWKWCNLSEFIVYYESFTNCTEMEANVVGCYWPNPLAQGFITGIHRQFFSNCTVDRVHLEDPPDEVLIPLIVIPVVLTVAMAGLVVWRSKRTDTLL
Nature of the test: SPA competition binding, displacement of 125I-rat amylin from membranes of Amylin 3(a)/CRE-luc BHK cells (Assay V). The method in brief: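 SPA beads + BHK amylin 3(a)/CRE-luc membranes, 35 ng/μL final; buffer 50 mM Hepes pH 7.4, 1 mM CaCl2, 5 mM MgCl₂, 0.1% OA, 0.02% Tween20. 120 min, 25° C, shaken; scintillation count. IC₅₀ by one-site binding competition fit, taken as receptor affinity.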
For orientation: In a radioligand displacement assay an active substance lowers the binding of a labelled ligand.

The target in test [2] is T2, human calcitonin receptor (human, UniProt P30988 25-474).
T2 sequence (looked up): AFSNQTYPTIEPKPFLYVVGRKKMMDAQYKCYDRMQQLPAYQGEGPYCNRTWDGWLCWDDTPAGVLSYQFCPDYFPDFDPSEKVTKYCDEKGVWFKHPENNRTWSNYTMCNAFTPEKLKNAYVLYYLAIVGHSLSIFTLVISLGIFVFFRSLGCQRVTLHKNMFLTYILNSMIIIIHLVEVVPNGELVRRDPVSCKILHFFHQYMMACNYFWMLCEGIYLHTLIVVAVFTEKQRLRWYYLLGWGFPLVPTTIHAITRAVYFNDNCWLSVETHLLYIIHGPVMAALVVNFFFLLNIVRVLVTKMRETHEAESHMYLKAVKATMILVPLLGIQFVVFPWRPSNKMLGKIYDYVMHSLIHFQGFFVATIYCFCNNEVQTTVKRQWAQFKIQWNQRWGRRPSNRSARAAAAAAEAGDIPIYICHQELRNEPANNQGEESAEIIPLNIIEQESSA
Kind of test: cell-based or functional assay.

Test [3] concerns the target T1, human amylin 3(a) receptor (human …). Nature of the test: cell-based or functional assay.

Numbered stars: 1 amine (or outer) side, 2 acyl side, 3 side chain; on linkers, the order of the positions; unused ones are H or OH. Bridge positions count the residues as written; N and C are the ends. Side chains are listed from the residue outwards. Ends that are not written are not given here. * marks the point of attachment. C20 diacid = O=C(O)CCCCCCCCCCCCCCCCCCC(=O)*; γGlu = O=C(O)[C@H](CCC(=O)[*:2])N[*:1]

B1: N^ε1-[(4S)-4-carboxy-4-[[(4S)-4-carboxy-4-(19-carboxynonadecanoylamino)butanoyl]amino]butanoyl]-[Glu14,Arg17,Pro21,Pro27,Pro34,Glu35]-h-amylin (peptide)
peptide: K([γGlu-γGlu-C20 diacid])CNTATCATQRLAEFLRHSSPNFGAIPSSTNVGPETY-NH2
modifications: disulfide 2-7; N-terminus assumed
SMILES: CC[C@H](C)[C@H](NC(=O)[C@H](C)NC(=O)CNC(=O)[C@H](Cc1ccccc1)NC(=O)[C@H](CC(N)=O)NC(=O)[C@@H]1CCCN1C(=O)[C@H](CO)NC(=O)[C@H](CO)NC(=O)[C@H](Cc1c[nH]cn1)NC(=O)[C@H](CCCNC(=N)N)NC(=O)[C@H](CC(C)C)NC(=O)[C@H](Cc1ccccc1)NC(=O)[C@H](CCC(=O)O)NC(=O)[C@H](C)NC(=O)[C@H](CC(C)C)NC(=O)[C@H](CCCNC(=N)N)NC(=O)[C@H](CCC(N)=O)NC(=O)[C@@H](NC(=O)[C@H](C)NC(=O)[C@@H]1CSSC[C@H](NC(=O)[C@@H](N)CCCCNC(=O)CC[C@H](NC(=O)CC[C@H](NC(=O)CCCCCCCCCCCCCCCCCCC(=O)O)C(=O)O)C(=O)O)C(=O)N[C@@H](CC(N)=O)C(=O)N[C@@H]([C@@H](C)O)C(=O)N[C@@H](C)C(=O)N[C@@H]([C@@H](C)O)C(=O)N1)[C@@H](C)O)C(=O)N1CCC[C@H]1C(=O)N[C@@H](CO)C(=O)N[C@@H](CO)C(=O)N[C@H](C(=O)N[C@@H](CC(N)=O)C(=O)N[C@H](C(=O)NCC(=O)N1CCC[C@H]1C(=O)N[C@@H](CCC(=O)O)C(=O)N[C@H](C(=O)N[C@@H](Cc1ccc(O)cc1)C(N)=O)[C@@H](C)O)C(C)C)[C@@H](C)O
As to B1, the IC50 – broadly, the midpoint of a concentration-inhibition curve – in test [1] stood at 0.121 nM. Besides, the “hCTR funct. EC50” value in test [2] worked out at 2.36 nM. Moreover, the “hAmylin-R funct. EC50” value in test [3] is 0.225 nM.

B2: N^ε1-[(4S)--4-carboxy-4-(19-carboxynonadecanoylamino)butanoyl]-[Glu14,Arg17,Pro21,Pro27,Pro37]-h-amylin (peptide)
peptide: K([γGlu-C20 diacid])CNTATCATQRLAEFLRHSSPNFGAIPSSTNVGSNTP-NH2
modifications: disulfide 2-7; N-terminus assumed
SMILES: CC[C@H](C)[C@H](NC(=O)[C@H](C)NC(=O)CNC(=O)[C@H](Cc1ccccc1)NC(=O)[C@H](CC(N)=O)NC(=O)[C@@H]1CCCN1C(=O)[C@H](CO)NC(=O)[C@H](CO)NC(=O)[C@H](Cc1c[nH]cn1)NC(=O)[C@H](CCCNC(=N)N)NC(=O)[C@H](CC(C)C)NC(=O)[C@H](Cc1ccccc1)NC(=O)[C@H](CCC(=O)O)NC(=O)[C@H](C)NC(=O)[C@H](CC(C)C)NC(=O)[C@H](CCCNC(=N)N)NC(=O)[C@H](CCC(N)=O)NC(=O)[C@@H](NC(=O)[C@H](C)NC(=O)[C@@H]1CSSC[C@H](NC(=O)[C@@H](N)CCCCNC(=O)CC[C@H](NC(=O)CCCCCCCCCCCCCCCCCCC(=O)O)C(=O)O)C(=O)N[C@@H](CC(N)=O)C(=O)N[C@@H]([C@@H](C)O)C(=O)N[C@@H](C)C(=O)N[C@@H]([C@@H](C)O)C(=O)N1)[C@@H](C)O)C(=O)N1CCC[C@H]1C(=O)N[C@@H](CO)C(=O)N[C@@H](CO)C(=O)N[C@H](C(=O)N[C@@H](CC(N)=O)C(=O)N[C@H](C(=O)NCC(=O)N[C@@H](CO)C(=O)N[C@@H](CC(N)=O)C(=O)N[C@H](C(=O)N1CCC[C@H]1C(N)=O)[C@@H](C)O)C(C)C)[C@@H](C)O
notes: also called compound 12
With B2, the half-inhibitory concentration (IC50) in test [1] was 0.142 nM. The “hCTR funct. EC50” value in test [2] is 0.185 nM. In test [3], the “Ratio hCT/hAmylin funct.” value is 1.8 and the “hAmylin-R funct. EC50” value was determined as 0.101 nM.

B3: N{Alpha-1}-[(4S)-4-carboxy-4-(19-carboxynonadecanoylamino)butanoyl]-[Glu14,Arg17,Pro21,Pro27,Lys34]-h-amylin (peptide)
peptide: {C20 diacid-γGlu}-KCNTATCATQRLAEFLRHSSPNFGAIPSSTNVGKNTY-NH2
modifications: disulfide 2-7
SMILES: CC[C@H](C)[C@H](NC(=O)[C@H](C)NC(=O)CNC(=O)[C@H](Cc1ccccc1)NC(=O)[C@H](CC(N)=O)NC(=O)[C@@H]1CCCN1C(=O)[C@H](CO)NC(=O)[C@H](CO)NC(=O)[C@H](Cc1c[nH]cn1)NC(=O)[C@H](CCCNC(=N)N)NC(=O)[C@H](CC(C)C)NC(=O)[C@H](Cc1ccccc1)NC(=O)[C@H](CCC(=O)O)NC(=O)[C@H](C)NC(=O)[C@H](CC(C)C)NC(=O)[C@H](CCCNC(=N)N)NC(=O)[C@H](CCC(N)=O)NC(=O)[C@@H](NC(=O)[C@H](C)NC(=O)[C@@H]1CSSC[C@H](NC(=O)[C@H](CCCCN)NC(=O)CC[C@H](NC(=O)CCCCCCCCCCCCCCCCCCC(=O)O)C(=O)O)C(=O)N[C@@H](CC(N)=O)C(=O)N[C@@H]([C@@H](C)O)C(=O)N[C@@H](C)C(=O)N[C@@H]([C@@H](C)O)C(=O)N1)[C@@H](C)O)C(=O)N1CCC[C@H]1C(=O)N[C@@H](CO)C(=O)N[C@@H](CO)C(=O)N[C@H](C(=O)N[C@@H](CC(N)=O)C(=O)N[C@H](C(=O)NCC(=O)N[C@@H](CCCCN)C(=O)N[C@@H](CC(N)=O)C(=O)N[C@H](C(=O)N[C@@H](Cc1ccc(O)cc1)C(N)=O)[C@@H](C)O)C(C)C)[C@@H](C)O
notes: also called compound 36
For the molecule B3, the IC50 in test [1] turned out to be 0.403 nM. Besides, the “hCTR funct. EC50” value in test [2] amounted to 1.28 nM. Also, in test [3], the “Ratio hCT/hAmylin funct.” value was found to be 6.8 and the “hAmylin-R funct. EC50” value was 0.189 nM.
Consider K([γGlu-γGlu-C20 diacid])CNTATCATQRLAEFLRHSSPNFGAIPSSTNVGPHTY-NH2 (disulfide 2-7 (inferred)), for which the IC50 in test [1] stood at 0.377 nM. Moreover, the “hCTR funct. EC50” value in test [2] came to 2.83 nM. In addition, in test [3], the “hAmylin-R funct. EC50” value came out at 0.172 nM.
For the molecule K([γGlu-γGlu-C20 diacid])CNTATCATQRLAEFLRHSSPNFGAILSSTPVGPETY-NH2 (disulfide 2-7 (inferred)), the IC50 in test [1] was found to be 0.069 nM. In test [2], the “hCTR funct. EC50” value is 1.28 nM. Besides, in test [3], the “Ratio hCT/hAmylin funct.” value is 5.8 and the “hAmylin-R funct. EC50” value stood at 0.222 nM.
In the case of K([γGlu-γGlu-C20 diacid])CNTATCATQRLAEFLRHSSPNFGAIPSSTNVGSNTP-NH2 (disulfide 2-7 (inferred), also called compound 13), in test [1], the IC50 came out at 0.264 nM. The “hCTR funct. EC50” value in test [2] turned out to be 0.47 nM. Besides, in test [3], the “Ratio hCT/hAmylin funct.” value came to 2.2 and the “hAmylin-R funct. EC50” value amounted to 0.213 nM.

B4: N^α1 N^α1-[(4S)-4-carboxy-4-[[(4S)-4-carboxy-4-(19-carboxynonadecanoylamino)butanoyl]amino]butanoyl]-[Glu14,Arg17,Pro21,Pro27]-h-amylin (peptide)
peptide: {C20 diacid-γGlu-γGlu}-KCNTATCATQRLAEFLRHSSPNFGAIPSSTNVGSNTY-NH2
modifications: disulfide 2-7
SMILES: CC[C@H](C)[C@H](NC(=O)[C@H](C)NC(=O)CNC(=O)[C@H](Cc1ccccc1)NC(=O)[C@H](CC(N)=O)NC(=O)[C@@H]1CCCN1C(=O)[C@H](CO)NC(=O)[C@H](CO)NC(=O)[C@H](Cc1c[nH]cn1)NC(=O)[C@H](CCCNC(=N)N)NC(=O)[C@H](CC(C)C)NC(=O)[C@H](Cc1ccccc1)NC(=O)[C@H](CCC(=O)O)NC(=O)[C@H](C)NC(=O)[C@H](CC(C)C)NC(=O)[C@H](CCCNC(=N)N)NC(=O)[C@H](CCC(N)=O)NC(=O)[C@@H](NC(=O)[C@H](C)NC(=O)[C@@H]1CSSC[C@H](NC(=O)[C@H](CCCCN)NC(=O)CC[C@H](NC(=O)CC[C@H](NC(=O)CCCCCCCCCCCCCCCCCCC(=O)O)C(=O)O)C(=O)O)C(=O)N[C@@H](CC(N)=O)C(=O)N[C@@H]([C@@H](C)O)C(=O)N[C@@H](C)C(=O)N[C@@H]([C@@H](C)O)C(=O)N1)[C@@H](C)O)C(=O)N1CCC[C@H]1C(=O)N[C@@H](CO)C(=O)N[C@@H](CO)C(=O)N[C@H](C(=O)N[C@@H](CC(N)=O)C(=O)N[C@H](C(=O)NCC(=O)N[C@@H](CO)C(=O)N[C@@H](CC(N)=O)C(=O)N[C@H](C(=O)N[C@@H](Cc1ccc(O)cc1)C(N)=O)[C@@H](C)O)C(C)C)[C@@H](C)O
notes: also called compound 15
Take B4: the IC50 in test [1] turned out to be 0.597 nM. For the same molecule, in test [2], the “hCTR funct. EC50” value turned out to be 3.43 nM. In addition, in test [3], the “Ratio hCT/hAmylin funct.” value was 8.9 and the “hAmylin-R funct. EC50” value was found to be 0.386 nM.

B5: N^α1-[2-[2-[2-[[2-[2-[2-[[(4S)-4-carboxy-4-(19-carboxynonadecanoylamino)butanoyl]amino]ethoxy]ethoxy]acetyl]amino]ethoxy]ethoxy]acetyl]-[Glu14,Arg17,Pro21,Pro27 … (peptide)
peptide: KCNTATCATQRLAEFLRHSSPNFGAIPSSTNVGSNTY
modifications: C20 diacid-gGlu-2xOEG on the alpha amino group of the N-terminal residue (position 1); disulfide bridge Cys2-Cys7; C-terminal amide
notes: also called compound 19
B5: the IC50 in test [1] amounted to 0.556 nM. The “hCTR funct. EC50” value in test [2] stood at 5.32 nM. Also, in test [3], the “Ratio hCT/hAmylin funct.” value was determined as 17.4 and the “hAmylin-R funct. EC50” value is 0.307 nM.
